Measurements published in patent publication US11472877 (Alector, dated 2022).

T1: human TREM2 on BWZ cells (human, UniProt Q9NZC2 19-230)
T1 construct: whole, on cells; not tied to the cell line; also called BWZ Human TREM2
T1 sequence (looked up): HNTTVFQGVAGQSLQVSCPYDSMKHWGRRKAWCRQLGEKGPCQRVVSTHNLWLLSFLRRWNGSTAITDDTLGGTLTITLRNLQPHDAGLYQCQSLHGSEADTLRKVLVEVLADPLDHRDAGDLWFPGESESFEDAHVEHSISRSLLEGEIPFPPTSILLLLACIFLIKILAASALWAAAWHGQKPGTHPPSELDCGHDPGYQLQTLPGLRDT

T2: mouse TREM2 on BWZ cells (mouse, UniProt Q99NH8 19-227)
T2 construct: whole, on cells; also called BWZ Mouse TREM2
T2 sequence (looked up): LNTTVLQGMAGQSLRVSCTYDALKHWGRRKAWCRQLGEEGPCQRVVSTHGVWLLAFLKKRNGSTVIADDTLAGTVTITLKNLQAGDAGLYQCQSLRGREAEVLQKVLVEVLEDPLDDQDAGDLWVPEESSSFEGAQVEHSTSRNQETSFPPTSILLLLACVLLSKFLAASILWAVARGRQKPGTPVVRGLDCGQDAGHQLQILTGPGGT


Legend:
human TREM2 on BWZ cells = biological target: T1, human TREM2 on BWZ cells; assay: FACS, BWZ cells
mouse TREM2 on BWZ cells = biological target: T2, mouse TREM2 on BWZ cells; assay: FACS, BWZ cells

Row | binding result (human TREM2 on BWZ cells) | binding result (mouse TREM2 on BWZ cells) | Binder
1 | no binding | no binding | T1-33 (antibody, IgG1, V domains shown, huIgG1; also called TI-33; ADI-19107) VH: QVQLVESGGGVVQPGRSLRLSCAASGFTFSNYGMHWVRQAPGKGLEWVAVIWYDGSNKYYADSVKGRFTISRDNSKNTLYLQMNSLRAEDTAVYYCAKGSTHRGSAYGMDVWGQGTTVTVSS VL: DIQMTQSPSSVSASVGDRVTITCRASQGISSWLAWYQQKPGKAPKLLIYAASSLQSGVPSRFSGSGSGTDFTLTISSLQPEDFATYYCQQINDHPFTFGGGTKVEIK
2 | no binding | no binding | T1-73 (antibody, IgG1, V domains shown, huIgG1; also called TI-73; ADI-19149) VH: EVQLVESGGGLVQPGRSLRLSCAASGFTFDDYAMHWVRQAPGKGLEWVSGISWNSGSIGYADSVKGRFTISRDNAKNSLYLQMNSLRAEDTALYYCAKAPRMYGYFDLWGRGTSVTVSS VL: DIQMTQSPSTLSASVGDRVTITCRASQSISSWLAWYQQKPGKAPKLLIYKASSLESGVPSRFSGSGSGTEFTLTISSLQPDDFATYYCQQYRTYPTFGGGTKVEIK
3 | no binding | no binding | T1-78 (antibody, IgG1, V domains shown, huIgG1; also called TI-78; ADI-19155) VH: QLQLQESGPGLVKPSETLSLTCTVSGGSISSSSYYWGWIRQPPGKGLEWIGSIYYSGSTYYNPSLKSRVTISVDTSKNQFSLKLSSVTAADTAVYYCARDLGQYEGYFDLWGRGTLVTVSS VL: not shown
4 | no binding | no binding | T1-79 (antibody, IgG1, V domains shown, huIgG1; also called TI-79; ADI-19156) VH: QLQLQESGPGLVKPSETLSLTCTVSGGSISSSSYYWGWIRQPPGKGLEWIGSIYYSGSTYYNPSLKSRVTISVDTSKNQFSLKLSSVTAADTAVYYCARLGDGYRIWADYWGQGTLVTVSS VL: not shown
5 | no binding | no binding | T1-12 (antibody, IgG1, V domains shown, huIgG1; also called TI-12; ADI-19079) VH: QLQLQESGPGLVKPSETLSLTCTVSGGSISSSSYYWGWIRQPPGKGLEWIGSIYYSGSTYYNPSLKSRVTISVDTSKNQFSLKLSSVTAADTAVYYCARGGGYPWEAFDYWGKGTTVTVSS VL: EIVLTQSPATLSLSPGERATLSCRASQSVSSYLAWYQQKPGQAPRLLIYDASNRATGIPARFSGSGSGTDFTLTISSLEPEDFAVYYCQQYTSWPLTFGGGTKVEIK
6 | no binding | no binding | T1-14 (antibody, IgG1, V domains shown, huIgG1; also called TI-14; ADI-19081) VH: QVQLVESGGGVVQPGRSLRLSCAASGFTFSSYGMHWVRQAPGKGLEWVAVISYDGSNKYYADSVKGRFTISRDNSKNTLYLQMNSLRAEDTAVYYCARRSSGDYLDVWGQGTMVTVSS VL: not shown
7 | no binding | no binding | T1-5 (antibody, IgG1, V domains shown, huIgG1; also called TI-5; ADI-19071) VH: QVQLVQSGAEVKKPGASVKVSCKASGYTFTSYYMHWVRQAPGQGLEWMGVINPSGGSTSYAQKFQGRVTMTRDTSTSTVYMELSSLRSEDTAVYYCARESDGIDSYFDYWGQGTLVTVSS VL: not shown
8 | no binding | no binding | T1-7 (antibody, IgG1, V domains shown, huIgG1; also called TI-7; ADI-19073) VH: QVQLVQSGAEVKKPGASVKVSCKASGYTFTSYYMHWVRQAPGQGLEWMGIINPSGGSTSYAQKFQGRVTMTRDTSTSTVYMELSSLRSEDTAVYYCARGLIYGDAFDYWGQGTLVTVSS VL: not shown

Continued, binder first:

Row | Binder | binding result (human TREM2 on BWZ cells) | binding result (mouse TREM2 on BWZ cells)
9 | T1-11 (antibody, IgG1, V domains shown, huIgG1; also called TI-11; ADI-19078) VH: QLQLQESGPGLVKPSETLSLTCTVSGGSISSSSYYWGWIRQPPGKGLEWIGSIYYSGSTYYNPSLKSRVTISVDTSKNQFSLKLSSVTAADTAVYYCARSGEYGFDLWGRGTLVTVSS VL: not shown | no binding | no binding
10 | T1-72 (antibody, IgG1, V domains shown, huIgG1; also called TI-72; ADI-19148) VH: EVQLVESGGGLVQPGRSLRLSCAASGFTFDDYAMHWVRQAPGKGLEWVSGISWNSGDIGYADSVKGRFTISRDNAKNSLYLQMNSLRAEDTALYYCAKGPRMTHSYFDLWGRGTLVTVSS VL: not shown | no binding | no binding
11 | T1-75 (antibody, IgG1, V domains shown, huIgG1; also called TI-75; ADI-19152) VH: QVQLVESGGGLVQPGRSLRLSCAASGFTFDDYAMHWVRQAPGKGLEWVSGISWNSGDIGYADSVKGRFTISRDNAKNSLYLQMNSLRAEDTALYYCAKAPRTRWTYFDYWGQGTLVTVSS VL: EIVLTQSPATLSLSPGERATLSCRASQSVSSYLAWYQQKPGQAPRLLIYDASNRATGIPARFSGSGSGTDFTLTISSLEPEDFAVYYCQHYNLWRTFGGGTKVEIK | no binding | no binding
12 | T1-76 (antibody, IgG1, V domains shown, huIgG1; also called TI-76; ADI-19153) VH: not shown VL: DIQMTQSPSTLSASVGDRVTITCRASQSISSWLAWYQQKPGKAPKLLIYDASSLESGVPSRFSGSGSGTEFTLTISSLQPDDFATYYCQQHSTYSWTFGGGTKVEIK | no binding | no binding
13 | T1-77 (antibody, IgG1, V domains shown, huIgG1; also called TI-77; ADI-19154) VH: QVQLQESGPGLVKPSETLSLTCAVSGYSISSGYYWAWIRQPPGKGLEWIGSIYHSGSTYYNPSLKSRVTISVDTSKNQFSLKLSSVTAADTAVYYCARGGPYPWSGWFDPWGQGTLVTVSS VL: EIVMTQSPATLSVSPGERATLSCRASQSVGSNLAWYQQKPGQAPRLLIYGASTRATGIPARFSGSGSGTEFTLTISSLQSEDFAVYYCQQHDVWPYTFGGGTKVEIK | no binding | no binding
14 | T1-4 (antibody, IgG1, V domains shown, huIgG1; also called TI-4; ADI-19070) VH: QVQLVQSGAEVKKPGSSVKVSCKASGGTFSSYAISWVRQAPGQGLEWMGGIIPIFGTANYAQKFQGRVTITADESTSTAYMELSSLRSEDTAVYYCARHYYYGYAYFDLWGRGTLVTVSS VL: EIVMTQSPATLSVSPGERATLSCRASQSVSSNLAWYQQKPGQAPRLLIYGASTRATGIPARFSGSGSGTEFTLTISSLQSEDFAVYYCQQFNNHPITFGGGTKVEIK | no binding | no binding
15 | T1-2 (antibody, IgG1, V domains shown, huIgG1; also called TI-2; ADI-19068) VH: QVQLVQSGAEVKKPGSSVKVSCKASGGTFSSYAISWVRQAPGQGLEWMGGIIPIFGTANYAQKFQGRVTITADESTSTAYMELSSLRSEDTAVYYCAREGGPRGASFNWFDPWGQGTLVTVSS VL: EIVLTQSPGTLSLSPGERATLSCRASQSVSSSYLAWYQQKPGQAPRLLIYGASSRATGIPDRFSGSGSGTDFTLTISRLEPEDFAVYYCQQYLGFPPTFGGGTKVEIK | no binding | no binding
16 | T1-15 (antibody, IgG1, V domains shown, huIgG1; also called TI-15; ADI-19082) VH: EVQLVESGGGLVKPGGSLRLSCAASGFTFSSYSMNWVRQAPGKGLEWVSSISSSSSYIYYADSVKGRFTISRDNAKNSLYLQMNSLRAEDTAVYYCARRGGSYDAFQHWGQGTLVTVSS VL: EIVLTQSPGTLSLSPGERATLSCRASQSVSSSYLAWYQQKPGQAPRLLIYGASSRATGIPDRFSGSGSGTDFTLTISRLEPEDFAVYYCQQAFISPPTFGGGTKVEIK | no binding | no binding
17 | T1-22 (antibody, IgG1, V domains shown, huIgG1; also called TI-22; ADI-19089) VH: QVQLQESGPGLVKPSETLSLTCTVSGGSISSYYWSWIRQPPGKGLEWIGHIYYSGSTNYNPSLKSRVTISVDTSKNQFSLKLSSVTAADTAVYYCARDAGRYYGSSSSWYFDLWGRGTLVTVSS VL: EIVLTQSPGTLSLSPGERATLSCRASQSVSSSYLAWYQQKPGQAPRLLIYGASSRATGIPDRFSGSGSGTDFTLTISRLEPEDFAVYYCQQYLIPPITFGGGTKVEIK | no binding | no binding
18 | T1-1 (antibody, IgG1, V domains shown, huIgG1; also called TI-1; ADI-19067) VH: QVQLVQSGAEVKKPGSSVKVSCKASGGTFSSYAISWVRQAPGQGLEWMGGIIPIFGTANYAQKFQGRVTITADESTSTAYMELSSLRSEDTAVYYCARGQGSDHYYYGMDVWGQGTTVTVSS VL: not shown | no binding | no binding
19 | T1-17 (antibody, IgG1, V domains shown, huIgG1; also called TI-17; ADI-19084) VH: QVQLQESGPGLVKPSETLSLTCTVSGGSISSYYWSWIRQPPGKGLEWIGSIYYSGSTNYNPSLKSRVTISVDTSKNQFSLKLSSVTAADTAVYYCARGAPGGRHNWFDPWGQGTLVTVSS VL: DIQMTQSPSSLSASVGDRVTITCQASQDISNYLNWYQQKPGKAPKLLIYDASNLATGVPSRFSGSGSGTDFTFTISSLQPEDIATYYCQQSDIHPRTFGGGTKVEIK | no binding | no binding
20 | T1-71 (antibody, IgG1, V domains shown, huIgG1; also called TI-71; ADI-19147) VH: EVQLVESGGGLVQPGRSLRLSCAASGFTFGDYAMHWVRQAPGKGLEWVSGISWNSGSIGYADSVKGRFTISRDNAKNSLYLQMNSLRAEDTALYYCAKGPRRTSHLDIWGQGTMVTVSS VL: DIQMTQSPSSVSASVGDRVTITCRASQGIDSWLAWYQQKPGKAPKLLIYAASSLQSGVPSRFSGSGSGTDFTLTISSLQPEDFATYYCQQATSLPLTFGGGTKVEIK | no binding | no binding
21 | T1-74 (antibody, IgG1, V domains shown, huIgG1; also called TI-74; ADI-19151) VH: EVQLVESGGGLVQPGRSLRLSCAASGFTFDDYAMHWVRQAPGKGLEWVSGISWNSGSIGYADSVKGRFTISRDNAKNSLYLQMNSLRAEDTALYYCAKGPRTRGYFDLWGRGTLVTVSS VL: DIQMTQSPSTLSASVGDRVTITCRASQSISSWLAWYQQKPGKAPKLLIYKASSLESGVPSRFSGSGSGTEFTLTISSLQPDDFATYYCQQHSLLSITFGGGTKVEIK | no binding | no binding
